{"source": "patent US6558661", "about": "(Genentech, dated 2003)", "binders": {"B1": {"name": "recombinant murine IFN-γ (ligand, UniProt P01580 23-155, looked up)", "chain": "HGTVIESLESLNNYFNSSGIDVEEKSLFLDIWRNWQKDGDMKILQSQIISFYLRLFEVLKDNQAISNNISVIESHLITTFFSNSKAKKDAFMSIAKFEVNNPQVQRQAFNELIRVVHQLLPESSLRKRKRSRC", "modifications": "radioiodinated with 125I using lactoperoxidase in the binding assays and ligand blots; unlabeled as competitor and in cell assays", "notes": "also called mIFN-γ"}, "B2": {"name": "recombinant human IFN-γ (ligand, UniProt P01579 24-166, looked up)", "chain": "QDPYVKEAENLKKYFNAGHSDVADNGTLFLGILKNWKEESDRKIMQSQIVSFYFKLFKNFKDDQSIQKSVETIKEDMNVKFFNSNKKKRDDFEKLTNYSVTDLNVQRKAIHELIQVMAELSPAAKTGKRKRSQMLFRGRRASQ", "modifications": "radioiodinated with 125I using lactoperoxidase in the binding assays and ligand blots; unlabeled as competitor and in cell assays", "notes": "also called hIFN-γ"}, "B3": {"name": "murine IFN-γ receptor-IgG-1 immunoadhesin (mIFNγR-IgG-1) (Fc fusion, UniProt P15261 26-254, looked up, not shown: a dimerising Fc or GST)", "chain": "ALTSTEDPEPPSVPVPTNVLIKSYNLNPVVCWEYQNMSQTPIFTVQVKVYSGSWTDSCTNISDHCCNIYEQIMYPDVSAWARVKAKVGQKESDYARSKEFLMCLKGKVGPPGLEIRRKKEEQLSVLVFHPEVVVNGESQGTMFGDGSTCYTFDYTVYVEHNRSGEILHTKHTVEKEECNETLCELNISVSTLDSRYCISVDGISSFWQVRTEKSKDVCIPPFHDDRKDS"}, "B4": {"name": "human IFN-γ receptor-IgG-1 immunoadhesin (hIFNγR-IgG-1) (Fc fusion, not shown: a dimerising Fc or GST)", "chain": "EMGTADLGPSSVPTPTNVTIESYNMNPIVYWEYQIMPQVPVFTVEVKNYGVKNSEWIDACINISHHYCNISDHVGDPSNSLWVRVKARVGQKESAYAKSEEFAVCRDGKIGPPKLDIRKEEKQIMIDIFHPSVFVNGDEQEVDYDPETTCYIRVYNVYVRMNGSEIQYKILTQKEDDCDEIQCQLAIPVSSLNSQYCVSAEGVLHVWGVTTEKSKEVCITIFNSSIKG"}}, "key": {"[1]": {"biological_target": "B3", "assay": "equilibrium binding of [125I]mIFN-γ to immunoadhesin immobilized on anti-human IgG Fc coated wells, Scatchard analysis", "experimental": "(§1) IFNv binding assays. The binding of IFNγR-IgGs to IFN-γ was analyzed essentially as described [Ashkenazi et al., *Proc. Natl. Acad. Sci. USA* 88: 10535–10539 (1991)]. Each IFNγR-IgG (1 μg/ml) was immobilized onto microtiter wells coated with goat anti-human IgG Fc antibody. […] Nonspecific binding was determined by omitting IFNγR-IgGs.\n(§2) Binding of IFNγR-IqG to IFN-γ. We investigated the binding of the human and murine immunoadhesins to IFN-γ by equilibrium binding analysis (FIG. 2). […] 135: 300–305 (1985); Ucer, et al, Int. J. Cancer 36: 103–108 (1985)]."}, "[2]": {"biological_target": "B4", "assay": "competition binding assay with [125I]hIFN-γ on immobilized hIFNγR-IgG (data not shown)", "experimental": "as §1, §2"}, "[3]": {"biological_target": "B4", "assay": "equilibrium binding of [125I]hIFN-γ to immunoadhesin immobilized on anti-human IgG Fc coated wells, Scatchard analysis", "experimental": "as §1, §2"}, "[4]": {"biological_target": "B3", "assay": "competition binding assay with [125I]mIFN-γ on immobilized mIFNγR-IgG (data not shown)", "experimental": "as §1, §2"}, "recombinant murine IFN-γ": {"biological_target": "B1", "assay": "cell-based or functional assay"}, "recombinant human IFN-γ": {"biological_target": "B2", "assay": "cell-based or functional assay"}}}
{"binder": "B1", "values": [{"measurement": "Kd", "setting": "[1]", "value": 3.3, "unit": "nM"}, {"measurement": "binding result", "setting": "[2]", "value": "no binding"}]}
{"binder": "B2", "values": [{"measurement": "Kd", "setting": "[3]", "value": 1.5, "unit": "nM"}, {"measurement": "binding result", "setting": "[4]", "value": "no binding"}]}
{"binder": "B3", "values": [{"measurement": "inhibition of mIFN-γ antiviral effect in EMCV-infected mouse L929 cells, IC50", "setting": "recombinant murine IFN-γ", "value": "~10", "unit": "nM"}, {"measurement": "inhibition of mIFN-γ induction of class I MHC antigen H-2Kk in mouse L929 cells, IC50", "setting": "recombinant murine IFN-γ", "value": "~10", "unit": "nM"}]}
{"binder": "B4", "values": [{"measurement": "inhibition of hIFN-γ antiviral effect in EMCV-infected human A549 cells, IC50", "setting": "recombinant human IFN-γ", "value": "~8", "unit": "nM"}, {"measurement": "inhibition of hIFN-γ induction of ICAM-1 in human HeLa cells, half-maximal inhibition (IC50)", "setting": "recombinant human IFN-γ", "value": "~13", "unit": "nM"}]}
